From patent publication US20230295310A1 (ABCELLERA BIOLOGICS, published 2023)

Tests used:
human CD3e/g = target: T1, human CD3e/g (human, UniProt P07766 23-126; P09693 23-116); assay: SPR (Carterra LSA), mAb on chip
T1 construct: Bought soluble protein; also called hCD3e/g; human CD3e/g (Acro CDD-C52W4)
Procedure, shortened: (§1)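 Purified mAbs amine-coupled (EDC/S-NHS) at 10 μg/mL in 10 mM NaOAc pH 4.25 onto an HC-30M chip, with benchmark and negative-control mAbs; analyte flowed over the array. Double-referenced sensorgrams fitted globally to a 1:1 Langmuir model for ka, kd and KD.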

human CD3e/d = target: T2, human CD3e/d (human, UniProt P07766 23-126; P04234 22-105); assay: SPR (Carterra LSA), mAb on chip
T2 construct: Bought soluble protein; also called hCD3e/d; human CD3/ed (Sino CT038-H2508H)
Procedure, shortened: as §1

T2 sequence (P07766 23-126, chain 1 of 2): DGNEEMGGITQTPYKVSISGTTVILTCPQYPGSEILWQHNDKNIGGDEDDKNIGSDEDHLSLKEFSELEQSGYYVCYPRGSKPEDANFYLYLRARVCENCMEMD
T2 sequence (P04234 22-105, chain 2 of 2): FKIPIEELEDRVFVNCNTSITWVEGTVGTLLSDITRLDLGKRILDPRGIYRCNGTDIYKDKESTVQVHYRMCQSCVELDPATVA
T1 sequence (P07766 23-126, chain 1 of 2): as the sequence (P07766 23-126, chain 1 of 2) above
T1 sequence (P09693 23-116, chain 2 of 2): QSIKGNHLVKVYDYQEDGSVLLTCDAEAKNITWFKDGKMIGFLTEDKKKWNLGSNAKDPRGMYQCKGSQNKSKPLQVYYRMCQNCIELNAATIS

Row | Binder | Kd (human CD3e/g) [nM] | Kd (human CD3e/d) [nM]
1 | mAb 201 (antibody, V domains shown, VH and VL only) VH: QVQLVESGGGVVQPGRSLRLSCAASGFTFSGYGMHWVRQAPGKGLEWVAIIYYNGKKEYYADSVKGRFTISRDNSKNTLYLQMNSLRAEDTAVYYCTRGEGYNWFDPWGQGTLVTVSS VL: EIVMTQSPATLSVSPGERATLSCRASQSVSSSLAWYQQKPGQAPRLLIYGASTRATGIPARFSGSGSGTEFTLTISSLQSEDFAVYYCQQYNNWPLTFGGGTKVEIK | 13 | 28
2 | mAb 203 (antibody, V domains shown, VH and VL only) VH: QVQLVESGGGVVQPGGSLRLSCAASGFTFRGYGMHWVRQAPGKGLEWVAIIYYNGRKTYYAESVKGRFTISRDNSKNTLSLQMNSLRVEDTAVYYCTAGQGYNWFDPWGQGTLVTVSS VL: EIVMTQSPATLSVSPGERATLSCRASQSVSSNLAWYQQKPGQAPRLLIYGASTRATGIPARFSGSGSGTEFTLTISSLQSEDFAVYYCQQFNAWPLTFGGGTKMEIK | 9.5 | 17
3 | mAb 204 (antibody, V domains shown, VH and VL only) VH: QVQLVESGGGVVQSGRSLRLSCAASGFTFSGYGMHWVRQAPGKGLEWVAIVYYDGKNKYYADSVKGRFTISRDNSKNTLYLQMNSLRAEDTAVYYCVRGEGYNWFDPWGQGTLVTVSS VL: EIVMTQSPATLSVSPGERATLSCRASQSVSSNLAWYQQKPGQVPRLLIYGASTRATGIPARFSGSGSGTQFTLTISSLQSEDFAVYYCQQYNNWPLTFGGGTKVEIK | 90 | 200
4 | mAb 205 (antibody, V domains shown, VH and VL only) VH: QVQLVESGGGVVQPGKSLRLSCAASGFTFSGYGMHWVRQAPGKGLEWVAIIYYNGKKEYYADSVKGRFTISRDNSKNTLYLQMNSLRAEDTAVYYCTRGEGYNWFDPWGQGTLVTVSS VL: EIVMTQSPATLSVSPGERATLSCRASQSVSSNLAWYQQKPGQAPRLLIYGASTRATGIPARFSGSGSGTEFTLTISSLQSEDFAVYYCKQYNNWPLTFGGGTKVEIK | 8.4 | 13
5 | mAb 209 (antibody, V domains shown, VH and VL only) VH: QVQLVESGGGVVQPGRSLRLSCAASGFTFSGYGMHWVRQAPGKGLEWVAIIYYNGKKEYYADSVKGRFTVSRDNSKNMLYLQMNSLRAEDTAVYYCTRGEGYNWFDPWGQGTLVTVSS VL: EIVMTQSPATLSVSPGERATLSCRASQTVSSNLAWYQQKPGQAPRLLIYGASTRATGIPARFSGSGSGTEFTLTISSLQSEDFAVYYCKQYNNRPLTFGGGTKVEIK | 5.7 | 5.5
6 | mAb 216 (antibody, V domains shown, VH and VL only) VH: QVQLVESGGGVVQPGRSLRLSCAASGFTFSGYGMHWVRQAPGKGLEWVAIIYYNGKKEYYADSVKGRFTISRDNSKNTLYLQMNSLRAEDTAVYYCTRGEGYNWFDPWGQGTLVTVSS VL: EIVMTQSPATLSVSPGERATLSCRASQSVSSNLAWYQQKPGQAPRLLIYGASTRATGIPARFSGSGSGTEFTLTISSLQSEDFAVYYCKQYKNWPLTFGGGTKVEIK | 6.8 | 9.3
7 | mAb 217 (antibody, V domains shown, VH and VL only) VH: QVQLVESGGGVVQPGRSLRLSCAASGFTFSGYGMHWVRQAPGKGLEWVAIIYYNGKKEYYADSVKGRFTIFRDNSKNTVYLQMKSLRAEDTAVYYCTRGEGYNWFDPWGQGTLVTVSS VL: not shown | 17 | 38
8 | mAb 221 (antibody, V domains shown, VH and VL only) VH: QVQLVESGGGVVQPGGSLRLSCAASGFTFSGYGMHWVRQAPGKGLEWVAIIWYNGRKTYYAESVKGRFTISRDNSKNTLSLQMNSLRVEDTAVYYCTAGQGYNWFDPWGQGTLVTVSS VL: EIVMTQSPATLSVSPGERATLSCRASQSVSSNLAWYQQKPGQAPRLLIYGASTRATGIPARFSGSGSGTEFTLTISSLQSEDFAVYYCQQFNAWPLTFGGGTKMEIK | 25 | 38
9 | mAb 222 (antibody, V domains shown, VH and VL only) VH: QVQLVESGGGVVQPGRSLRLSCAASGFTFSGYGMHWVRQAPGKGLEWVAIIYYNGKKEYYADSVKGRFTISRDNSKNTVYLQMNSLRAEDTAVYYCTRGEGYNWFDPWGQGTLVTVSS VL: KIVMTQSPATLSVSPGERATLSCRASQSVSSNLAWYQQKPGQAPRLLIYGASTRATGIPARFSGSGSGTEFTLTISSLQSEDFAVYYCKQYNNWPLTFGGGTKVEIK | 8.2 | 16
10 | mAb 224 (antibody, V domains shown, VH and VL only) VH: QVQLVESGGGVVQPGRSLRLSCAASGFTFSGYGMHWVRQAPGKGLEWVAIIYYNGKKEYYADSVKGRFTISRDNSKNMLYLQMNGLRAEDTAIYYCTRGEGYNWFDPWGQGTLVTVSS VL: EIVMTQSPATLSVSPGERTTLSCRASQSVSNNLAWYQQKPGQAPRLLIYGASTRATGIPARFSGSGSGTEFTLTISSLQSEDFAVYYCQQYNNWPLTFGGGTKVEIK | 18 | 39
11 | mAb 54 (antibody, V domains shown, VH and VL only) VH: EVQLEESGGGLVQPGGSLRLSCAASGFTFSRYSMNWVRQAPGKGLEWFSYISSSSRTIYYADSVKGRFTMSRDNAKNSLYLQMNSLRDEDTAVYFCARGDYYDSEGMDVWGKGTTVTVSS VL: DIQMTQSPSTLSASVGDRVTITCRASQTITTWLAWYQQKPGKAPKLLIYKASTLESGVPSRFSGSGSGTEFTLTISSLQPDDFATYHCQQYKTFSYTFGQGTKLDIK | 83.2 | 553
12 | mAb 206 (antibody, V domains shown, VH and VL only) VH: QVQLVESGGGVVQPGRSLRLSCAASGFTFSGYGMHWVRQAPGKGLEWVAIIYYNGNNRKYADSVKGRFTISRDNSKNTVSLQMNSLRVEDTAIYYCTRGDGYNWFVTWGQGTLVTVSS VL: EIVMTQSPATLSVSPGERATLSCRASQSVSSNLAWYHQKPGQAPRLLIYGASTRATGIPVRFSGSGSGTEFTLTISSLQSEDFAVYYCQQYNNWPLTFGGGTKVEIK | 33 | 73
13 | mAb 193 (antibody, V domains shown, VH and VL only) VH: QVQLVESGGGVVQPGRSLRLSCAASGFTFSGYGMHWVRQAPGKGLEWVAIIYYNGNNRKYADSVKGRFTISRDNSKNTVSLQMNSLRVEDTAIYYCTRGDGYNWFVTWGQGTLVTVSS VL: EIVMTQSPATLSVSPGERATLSCRASQSVSSNLAWYHQKPGQAPRLLIYGASTRATGIPVRFSGSGSGTEFTLTISSLQSDDFAVYYCQQYNNWPLTFGGGTKVEIK | 29 | 93
14 | mAb 210 (antibody, V domains shown, VH and VL only) VH: QVQLVESGGGVVQPGRSLRLSCAASGFTFSGYGMHWVRQAPGKGLEWLAIIYYNGNNRKYADSVKGRFTISRDNSKNTVSLQMNSLRVEDTAMYYCTRGDGYNWFVTWGQGTLVTVSS VL: EIVMTQSPATLSVSPGERAALSCRASQSVTSNLAWYHQKPGQAPRLLIYGASTRATGIPVRFSGSGSGTEFTLTISSLQSEDFAVYYCQQYNNWPLTFGGGTKVENK | 59 | 120
15 | mAb 215 (antibody, V domains shown, VH and VL only) VH: QVQLVESGGGVVQPGRSLRLSCAATGFTFSGYGMHWVRQAPGKGLEWVAIIYYNGNNRKYADSVKGRFTISRDNSKNTVSLQMNSLRVEDTAIYYCTRGDGYNWFVTWGQGTLVTVSS VL: EIVMTQSPATLSVSPGERATLSCRASQSVSSNLAWYRQKPGQAPRLLIYGASTRATGIPVRFSGSGSGTEFTLTISSLQSEDFAVYYCQQYNNWPLTFGGGTKVEIK | 34 | 76
16 | mAb 218 (antibody, V domains shown, VH and VL only) VH: QVQLVESGGGVVQPGRSLRLSCAASGFTFSGYGMHWVRQAPGKGLEWVAIIYYNGNNRKYADSVRGRFTISRDNSKNTVSLQMNSLRVEDTAIYYCTRGDGYNWFVTWGQGTLVTVSS VL: EIVMTQSPATLSVSPGERATLSCRASQSVSSNLAWYYQKPGQAPRLLIYGASTRATGIPVRFSGSGSGTEFTLTISSLQSEDFAVYYCQQYNNWPLTFGGGTKVEIK | 34 | 62
17 | mAb 226 (antibody, V domains shown, VH and VL only) VH: QVQLVESGGGVVQPGRSLRLSCAASGFTFSGYGMHWVRQAPGKGLEWVAIIYYNGNNRKYADSVKGRFTISRDNSKNTVSLQMNSLRVEDTAIYYCTRGDGYNWFVTWGQGTLVTVSS VL: EIVMTQSPATLSVSPGERATLSCRASQSISSNLAWYHQKPGQAPRLLIYGASTRATGIPVRFSGSGSGTEFTLTISSLQSEDFALYYCQQYNNWPLTFGGGTKVEIK | 32 | 75
18 | mAb 194 (antibody, V domains shown, VH and VL only) VH: QEQLVESGGGVVQPGGSLRLSCAASGFIFSGYGMHWVRQAPGKGLEWVAIIWYNGRKTYYAESVKGRFTISRDNSKNTLSLQMNSLRVEDTAVYYCTAGQGYNWFDPWGQGTLVTVSS VL: EIVMTQSPATLSVSPGERATLSCRASQSVSSNLAWYQQKPGQAPRLLIYGASTRATGIPARFSGSGSGTEFTLTISSLQSEDFAVYYCQQFNAWPLTFGGGTKMEIK | 12 | 19
19 | mAb 195 (antibody, V domains shown, VH and VL only) VH: QEQLVESGGGVVQSGRSLRLSCVASGFKFSGYGMHWVRQAPGKGLEWVAIIYYDGKNKYYADSVKGRFTISRDNSKNTLYLQMNSLRAEDTAVYYCTRGAGYNWFDSWGQGTLVTVSS VL: EIVMTQSPATLSVSPGERATLSCRASQSVRNNLAWYQQKPGQAPRLLIYGVSTRATAFPARFSGSGSGTEFTLTISSLQSEDFAVYYCQQYNNWPLTFGGGTKVEIK | 7.1 | 11
20 | mAb 196 (antibody, V domains shown, VH and VL only) VH: QEQLVESGGGVVQSGRSLRLSCVASGFKFSGYGMHWVRQAPGKGLEWVAIIYYDGKNKYYADSVKGRFTVSRDNSKNTLYLQMNSLRAEDTAVYYCTRGAGYNWFDSWGQGTLVTVSS VL: EIVMTQSPATLSVSPGERATLSCRASQSVRNNLAWYQQKPGQAPRLLIYGVSTRATAFPARFSGSGSGTEFTLTISSLQSEDFAVYYCQQYNNWPLTFGGGTKVEIK | 9.1 | 6.9
21 | mAb 65 (antibody, V domains shown, VH and VL only) VH: QVQLVESGGGVVQPGRSLRLSCAASGFTFSGYGMHWVRQAPGKGLDWVAIIYYNGNNKYYADSVKGRFTISRDNSKNTLYLQMNSLRAEDTAVYYCARGGGYNWFDPWGQGTLVIVSS VL: not shown | 101 | 128
